Assay results taken from the supplement of paper PMC9233669.
Variants at the floor of the assay were thinned out.

What was measured:
biotinyl-Phe-oxazolone = test: self-aminoacylation, catalytic enhancement (BFO) (fold over background); higher = more active; k-Seq, kA / k0A0; sequences stand for … in GGGAAUGGAUCCACAUCUACGAAUUC…UUCACUGCAGACUUGACGAAGCUG
Method in brief: (§1)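 Mutagenized RNA pools (0.43 μM; 21-nt variable region) were treated with 2–1250 μM of each biotinyl-aminoacyl-oxazolone. Conditions were 50 μL HEPES/NaCl/KCl/MgCl2/CaCl2 buffer, 5% acetonitrile, pH 6.9–7.0, room temperature, 90 minutes. Catalytic enhancement, the median kA relative to the uncatalyzed rate, was derived from streptavidin capture, qPCR and Illumina sequencing.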

biotinyl-Ile-oxazolone = test: self-aminoacylation, catalytic enhancement (BIO) (fold over background); higher = more active; k-Seq, kA / k0A0; sequences stand for … in GGGAAUGGAUCCACAUCUACGAAUUC…UUCACUGCAGACUUGACGAAGCUG
Method in brief: as §1

biotinyl-Met-oxazolone = test: self-aminoacylation, catalytic enhancement (BMO) (fold over background); higher = more active; k-Seq, kA / k0A0; sequences stand for … in GGGAAUGGAUCCACAUCUACGAAUUC…UUCACUGCAGACUUGACGAAGCUG
Method in brief: as §1

biotinyl-Val-oxazolone = test: self-aminoacylation, catalytic enhancement (BVO) (fold over background); higher = more active; k-Seq, kA / k0A0; sequences stand for … in GGGAAUGGAUCCACAUCUACGAAUUC…UUCACUGCAGACUUGACGAAGCUG
Method in brief: as §1

biotinyl-Leu-oxazolone = test: self-aminoacylation, catalytic enhancement (BLO) (fold over background); higher = more active; k-Seq, kA / k0A0; sequences stand for … in GGGAAUGGAUCCACAUCUACGAAUUC…UUCACUGCAGACUUGACGAAGCUG
Method in brief: as §1

biotinyl-Trp-oxazolone = test: self-aminoacylation, catalytic enhancement (BWO) (fold over background); higher = more active; k-Seq, kA / k0A0; sequences stand for … in GGGAAUGGAUCCACAUCUACGAAUUC…UUCACUGCAGACUUGACGAAGCUG
Method in brief: as §1

Sequence | self-aminoacylation (biotinyl-Phe-oxazolone) | self-aminoacylation (biotinyl-Ile-oxazolone) | self-aminoacylation (biotinyl-Met-oxazolone) | self-aminoacylation (biotinyl-Val-oxazolone) | self-aminoacylation (biotinyl-Leu-oxazolone) | self-aminoacylation (biotinyl-Trp-oxazolone)
AUUACCCUGGGCAUCGCGUGA [Fam2.1 aminoacylation ribozyme variant] | 48.7 | 3.74 | 6.98 | 5.38 | 9.41 | 7.7
AUUACCCUGGUAAUCCAGUGA [Fam2.1 aminoacylation ribozyme variant] | 51.9 | 4.07 | 8.47 | 4.36 | 8.77 | 10.7
AUUACCCUGGUAAUCGGGUGA [Fam2.1 aminoacylation ribozyme variant] | 86.9 | 4.26 | 12.4 | 4.83 | 13.1 | 12.1
AUUACCCUGGUAAUUGAGUGA [Fam2.1 aminoacylation ribozyme variant] | 117 | 6.96 | 16.2 | 6.33 | 17.1 | 19.2
AUUACCCUGGUCAACCAGUGA [Fam2.1 aminoacylation ribozyme variant] | 39.2 | 3.9 | 6.42 | 3.78 | 6.76 | 7.15
AUUACCCUGGUCAACGAGGGA [Fam2.1 aminoacylation ribozyme variant] | 1.26 | 1.49 | 1.49 | 1.56 | 1.85 | 2.56
AUUACCCUGGUCAACGAGUCA [Fam2.1 aminoacylation ribozyme variant] | 0.683 | 1.14 | 1.05 | 0.969 | 0.745 | 0.482
AUUACCCUGGUCAACGAGUGG [Fam2.1 aminoacylation ribozyme variant] | 2.19 | 1.04 | 1.49 | 1.09 | 1.38 | 1.78
AUUACCCUGGUCACAGAGUGA [Fam2.1 aminoacylation ribozyme variant] | 54.1 | 4.39 | 8.95 | 4.01 | 10.9 | 9.52
AUUACCCUGGUCACCGAAUGA [Fam2.1 aminoacylation ribozyme variant] | 0.595 | 0.992 | 1.22 | 1.15 | 1.31 | 0.91
AUUACCCUGGUCACCGAGUGA [Fam2.1 aminoacylation ribozyme variant] | 51.3 | 3.9 | 8.44 | 4.25 | 9.26 | 9.22
AUUACCCUGGUCACCGAGUGG [Fam2.1 aminoacylation ribozyme variant] | 7.88 | 1.57 | 2.6 | 2.08 | 3.56 | 3.23
AUUACCCUGGUCACCGAGUGU [Fam2.1 aminoacylation ribozyme variant] | 16.6 | 2.65 | 4.97 | 2.55 | 5.37 | 5.42
AUUACCCUGGUCACUGAGUGA [Fam2.1 aminoacylation ribozyme variant] | 10.5 | 2.75 | 3.91 | 2.75 | 3.91 | 4.62
AUUACCCUGGUCAGCAAGUGA [Fam2.1 aminoacylation ribozyme variant] | 9.67 | 2.95 | 4.16 | 2.61 | 4 | 4.8
AUUACCCUGGUCAGCCAGUGA [Fam2.1 aminoacylation ribozyme variant] | 46.3 | 5.41 | 9.13 | 5.21 | 10.6 | 11
AUUACCCUGGUCAGCGAGUGA [Fam2.1 aminoacylation ribozyme variant] | 16.6 | 2.92 | 4.42 | 3.01 | 4.71 | 5.36
AUUACCCUGGUCAGCGAGUGU [Fam2.1 aminoacylation ribozyme variant] | 15.4 | 2.49 | 3.7 | 2.41 | 3.85 | 4.47
AUUACCCUGGUCAUACAGUGA [Fam2.1 aminoacylation ribozyme variant] | 14.8 | 2.91 | 4.03 | 3.03 | 4.57 | 5.95
AUUACCCUGGUCAUAGCGUGA [Fam2.1 aminoacylation ribozyme variant] | 51.8 | 4.12 | 8.87 | 4.99 | 9.18 | 10.6
AUUACCCUGGUCAUAGUGUGA [Fam2.1 aminoacylation ribozyme variant] | 0.987 | 0.955 | 1.12 | 0.977 | 0.978 | 0.799
AUUACCCUGGUCAUCGAAUAA [Fam2.1 aminoacylation ribozyme variant] | 0.904 | 0.801 | 0.987 | 1.15 | 0.914 | 1.41
AUUACCCUGGUCAUCGACUGU [Fam2.1 aminoacylation ribozyme variant] | 0.377 | 0.846 | 0.726 | 0.804 | 0.82 | 0.723
AUUACCCUGGUCAUCGAGAGA [Fam2.1 aminoacylation ribozyme variant] | 3.1 | 1.28 | 1.8 | 1.36 | 1.72 | 1.46
AUUACCCUGGUCAUCGAGAGU [Fam2.1 aminoacylation ribozyme variant] | 1.79 | 0.803 | 0.991 | 1.02 | 0.822 | 0.568
AUUACCCUGGUCAUCGAGGCA [Fam2.1 aminoacylation ribozyme variant] | 1.25 | 1.29 | 1.9 | 1.59 | 1.97 | 0.847

Sequence | self-aminoacylation (biotinyl-Phe-oxazolone) | self-aminoacylation (biotinyl-Ile-oxazolone) | self-aminoacylation (biotinyl-Met-oxazolone) | self-aminoacylation (biotinyl-Val-oxazolone) | self-aminoacylation (biotinyl-Leu-oxazolone) | self-aminoacylation (biotinyl-Trp-oxazolone)
AUUACCCUGGUCAUCGAGGGA [Fam2.1 aminoacylation ribozyme variant] | 9.56 | 2.71 | 5.93 | 2.99 | 5.66 | 5.46
AUUACCCUGGUCAUCGAGUCU [Fam2.1 aminoacylation ribozyme variant] | 0.56 | 0.697 | 0.784 | 0.901 | 0.712 | 0.846
AUUACCCUGGUCAUCGAGUUG [Fam2.1 aminoacylation ribozyme variant] | 3.62 | 1.27 | 2.14 | 1.75 | 2.04 | 1.47
AUUACCCUGGUCAUCGAUUGC [Fam2.1 aminoacylation ribozyme variant] | 0.81 | 1.15 | 0.757 | 0.926 | 0.84 | 0.663
AUUACCCUGGUCAUCGCCUGA [Fam2.1 aminoacylation ribozyme variant] | 14.2 | 2.72 | 2.48 | 3.15 | 3.64 | 3.69
AUUACCCUGGUCAUCGCGGGA [Fam2.1 aminoacylation ribozyme variant] | 29.3 | 5.03 | 5.35 | 4.56 | 7.42 | 3.4
AUUACCCUGGUCAUCGCGUGU [Fam2.1 aminoacylation ribozyme variant] | 51.7 | 4.14 | 8.31 | 4.84 | 9.06 | 8.25
AUUACCCUGGUCAUCGCGUUA [Fam2.1 aminoacylation ribozyme variant] | 12.7 | 2.27 | 2.71 | 2.32 | 2.73 | 4.12
AUUACCCUGGUCAUCGGGUGG [Fam2.1 aminoacylation ribozyme variant] | 395 | 22.6 | 68 | 26.3 | 80.6 | 81.4
AUUACCCUGGUCAUCGUGUGA [Fam2.1 aminoacylation ribozyme variant] | 17.2 | 1.58 | 3.01 | 1.85 | 3.08 | 3.41
AUUACCCUGGUCAUCUAAUGA [Fam2.1 aminoacylation ribozyme variant] | 0.963 | 0.967 | 1.06 | 0.917 | 0.908 | 0.586
AUUACCCUGGUCAUCUAGAGA [Fam2.1 aminoacylation ribozyme variant] | 0.684 | 1.04 | 0.865 | 1.03 | 0.887 | 0.6
AUUACCCUGGUCAUCUAGUGC [Fam2.1 aminoacylation ribozyme variant] | 1.27 | 0.835 | 1.06 | 1 | 1.08 | 0.68
AUUACCCUGGUCAUUCAGUGA [Fam2.1 aminoacylation ribozyme variant] | 14.1 | 3.33 | 4.7 | 3.16 | 5.37 | 6.28
AUUACCCUGGUCAUUGAGGGA [Fam2.1 aminoacylation ribozyme variant] | 1.13 | 1.23 | 1.25 | 1.51 | 1.25 | 2.06
AUUACCCUGGUCAUUGAGUGU [Fam2.1 aminoacylation ribozyme variant] | 18.9 | 2.42 | 4.42 | 2.78 | 4.72 | 5.6
AUUACCCUGGUCCACGAGUGA [Fam2.1 aminoacylation ribozyme variant] | 61.1 | 5.37 | 9.99 | 4.95 | 10.7 | 10.5
AUUACCCUGGUCCCCGAGUGA [Fam2.1 aminoacylation ribozyme variant] | 113 | 6.57 | 15.2 | 8.55 | 15.6 | 17.3
AUUACCCUGGUCCGCGAGUGA [Fam2.1 aminoacylation ribozyme variant] | 53.1 | 6.07 | 10.5 | 6.47 | 11.5 | 11.5
AUUACCCUGGUCGUCAAGUGA [Fam2.1 aminoacylation ribozyme variant] | 0.371 | 0.713 | 0.773 | 0.836 | 0.821 | 0.394
AUUACCCUGGUCGUCGAGUGC [Fam2.1 aminoacylation ribozyme variant] | 1.76 | 0.739 | 0.9 | 0.907 | 0.808 | 0.43
AUUACCCUGGUCGUCGCGUGA [Fam2.1 aminoacylation ribozyme variant] | 48.7 | 3.98 | 6.7 | 4.34 | 8.84 | 8.26
AUUACCCUGGUCGUCUAGUGA [Fam2.1 aminoacylation ribozyme variant] | 2.09 | 1.15 | 1.37 | 1.04 | 1.53 | 0.905
AUUACCCUGGUCUUAGAGUGA [Fam2.1 aminoacylation ribozyme variant] | 39.5 | 4.28 | 7.82 | 4.31 | 7.33 | 9.81
AUUACCCUGGUCUUCGAGUGA [Fam2.1 aminoacylation ribozyme variant] | 26.4 | 3.09 | 5.36 | 3.3 | 5.52 | 6.84
